Measured values from US20260008852A1 (CRYSTAL BIOSCIENCE, published 2026).
Numbering of substitutions follows the chain as printed.

B1: 40579p1.H11 (scFv, V domains shown)
VH: EVQLLESGGGLVQPGGSLRLSCAASGFTFDDYGMSWVRQAPGKGLEWVSAIRSKASSYATYYADSVKGRFTVSRDNSENTLYLQMNSLRAEDTAVYYCAKHRSNYYFMDVWGQGTTVTVSS
VL: EIVLTQSPGTLSLSPGERATLSCRASQSVGSDLAWYQQRPGQAPRLLIYAASSRATDIPDRFSGSGSGTDFTLTISSLQSEDFAVYYCQQYYSWPPLTFGGGTKVEIK
notes: Tested as scFv-Fc (Expi293 supernatant)
B2: 40511p1.2.A8 (scFv, V domains shown)
VH: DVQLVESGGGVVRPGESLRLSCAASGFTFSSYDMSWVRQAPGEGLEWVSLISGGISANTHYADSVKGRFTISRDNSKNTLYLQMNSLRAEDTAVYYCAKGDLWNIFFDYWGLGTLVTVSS
VL: EIVLTQSPATLSVSPGERATFSCRASQNVRSYLAWYQQKPGQAPRLLIFNTVTRATGIPDRFSGSGSGTDFTLTISSLEPEDFAVYYCQQYYDWPPLTFGGGTKVEIK
notes: as for B1
B3: 40579p1.D1 (scFv, V domains shown)
VH: EVQLLESGGGLVQPGGSLRLSCAASGFTFSDYYMSWVRQAPGKGLEWVSSISISYGGTTYYADSVKGRFTISRDNSKNTLYLQMNSLRAEDTAVYYCARDRSPYQCRSMDVWGQGTTVTVSS
VL: B1 VL with T10S, G30N, R39K, D57G, D60A, D70E, Y92N, S93N
notes: as for B1
B4: 40579p1.D8 (scFv, V domains shown)
VH: B3 VH
VL: EIVLTQSPGTLSLSPGERATLSCRASQSIRSDLAWYQQKPGQAPRLLIYNTVTRATGVPDRFSGSGSGTEFTLTISSLQSEDFAVYYCQQYNSWPPLTFGGGTKVEIK
notes: as for B1

Molecular target: T1, His-tagged mouse B7-H3 (mouse, UniProt Q8VE98 29-244, limits assumed)
T1 construct: Bought His-tagged protein coated on the ELISA plate; also called mu B7-H3; murine B7-H3
T1 sequence (looked up): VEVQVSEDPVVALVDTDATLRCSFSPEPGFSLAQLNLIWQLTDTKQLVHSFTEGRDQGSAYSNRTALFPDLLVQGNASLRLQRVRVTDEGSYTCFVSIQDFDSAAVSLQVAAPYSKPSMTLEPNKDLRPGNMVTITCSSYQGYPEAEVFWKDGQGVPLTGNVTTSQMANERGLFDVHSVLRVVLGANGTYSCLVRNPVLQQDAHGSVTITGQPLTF
Assay: ELISA, coated His-tagged antigen

Row | Binder | binding result
1 | B1 | no binding (tested: 1 ug/ml)
2 | B2 | no binding (tested: 1 ug/ml)

Molecular target: T2, His-tagged human B7-H3 (human, UniProt Q5ZPR3-2 29-245, limits assumed)
T2 construct: Bought His-tagged protein coated on the ELISA plate; also called hu B7-H3; CD276
T2 sequence (looked up): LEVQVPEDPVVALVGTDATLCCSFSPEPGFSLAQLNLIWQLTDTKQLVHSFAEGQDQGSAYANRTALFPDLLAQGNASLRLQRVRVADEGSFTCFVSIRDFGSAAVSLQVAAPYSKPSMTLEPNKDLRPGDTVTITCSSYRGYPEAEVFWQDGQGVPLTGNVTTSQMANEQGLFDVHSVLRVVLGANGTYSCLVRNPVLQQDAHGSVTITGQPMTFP
Assay: ELISA OD450 on hu B7-H3 over OD450 on mu B7-H3

Row | Binder | hu:mu ratio
3 | B3 | 1.74
4 | B4 | 2.1
5 | B2 | 38.4

Molecular target: T2, His-tagged human B7-H3
Assay: ELISA, coated His-tagged antigen, scFv-Fc 1 ug/ml

Row | Binder | ELISA OD450 @ 1 ug/ml
6 | B3 | 0.492 OD450
7 | B4 | 1.01 OD450
8 | B2 | 2.11 OD450

Molecular target: T1, His-tagged mouse B7-H3
Assay: ELISA, coated His-tagged antigen, scFv-Fc 1 ug/ml

Row | Binder | ELISA OD450 @ 1 ug/ml
9 | B1 | 0.051 OD450
10 | B3 | 0.283 OD450
11 | B4 | 0.48 OD450
12 | B2 | 0.055 OD450

Molecular target: T3, His-tagged cynomolgus monkey B7-H3 (cynomolgus monkey)
T3 chain: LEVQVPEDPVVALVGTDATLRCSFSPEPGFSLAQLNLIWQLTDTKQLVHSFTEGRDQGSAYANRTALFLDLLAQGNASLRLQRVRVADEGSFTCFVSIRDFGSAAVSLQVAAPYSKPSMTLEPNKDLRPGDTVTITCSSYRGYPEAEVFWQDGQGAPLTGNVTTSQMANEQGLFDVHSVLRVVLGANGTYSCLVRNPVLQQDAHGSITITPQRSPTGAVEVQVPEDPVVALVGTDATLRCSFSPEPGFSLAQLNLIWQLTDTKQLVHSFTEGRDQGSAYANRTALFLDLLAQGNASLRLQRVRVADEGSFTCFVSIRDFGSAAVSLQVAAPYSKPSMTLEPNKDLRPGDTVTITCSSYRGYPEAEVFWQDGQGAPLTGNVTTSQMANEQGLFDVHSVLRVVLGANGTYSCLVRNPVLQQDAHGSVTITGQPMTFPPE
Assay: ELISA, coated His-tagged antigen, scFv-Fc 1 ug/ml

Row | Binder | ELISA OD450 @ 1 ug/ml
13 | B1 | 0.769 OD450
14 | B3 | 1.33 OD450
15 | B4 | 1.87 OD450
16 | B2 | 2.34 OD450

Molecular target: T4, B7-H3 on B7-H3-expressing CHO cells (Genescript) (UniProt Q5ZPR3 29-534, limits assumed)
T4 construct: whole, on cells; also called CHO-K1/B7-H3; MFI B7-H3
T4 sequence (looked up): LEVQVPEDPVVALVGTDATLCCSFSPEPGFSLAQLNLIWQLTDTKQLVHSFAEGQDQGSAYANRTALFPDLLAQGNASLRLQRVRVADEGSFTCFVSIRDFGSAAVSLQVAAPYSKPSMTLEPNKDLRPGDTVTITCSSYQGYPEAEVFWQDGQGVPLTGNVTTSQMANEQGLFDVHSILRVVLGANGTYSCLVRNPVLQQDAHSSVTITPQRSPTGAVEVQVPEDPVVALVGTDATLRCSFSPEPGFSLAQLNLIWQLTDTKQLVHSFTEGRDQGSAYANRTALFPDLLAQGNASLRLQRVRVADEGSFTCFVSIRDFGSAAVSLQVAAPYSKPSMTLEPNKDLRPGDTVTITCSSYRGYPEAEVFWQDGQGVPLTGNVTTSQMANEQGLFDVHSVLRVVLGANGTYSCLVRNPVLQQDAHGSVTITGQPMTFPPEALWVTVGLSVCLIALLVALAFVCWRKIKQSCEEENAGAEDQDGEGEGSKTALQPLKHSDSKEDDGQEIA
Assay: flow cytometry, B7-H3-expressing CHO cells, 10 ug/ml
Summary of the method: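 Antibodies at 10 μg/ml in PBS/1% BSA/0.01% NaN3 incubated 60 min on ice with ~1.5e5 cells; parental CHO cells as counterscreen. After washing, read by flow cytometry; values are mean fluorescent intensities (MFI).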

Row | Binder | MFI @ 10 ug/ml
17 | B1 | 11600 MFI
18 | B3 | 36000 MFI
19 | B4 | 40800 MFI
20 | B2 | 25400 MFI
